Read-outs that look alike come from different tables or passages of the source.
How the values were obtained:
[1] = molecular target: Asp105 (UniProt position 105, GLVVYDYQQLL); assay: CD spectroscopy; details: 25 °C; Free folded domain, 4.2-10 µmol/L protein
[2] = molecular target: rh wildtype Bri2 BRICHOS (human) (UniProt Q9Y287); assay: SEC
[3] = molecular target: rh wildtype Bri2 BRICHOS (human) (UniProt Q9Y287); assay: SEC; remark: listed apart in the source

| stoichiometry N [2] | stoichiometry N [3] | Substance | pKa [1] |
| --- | --- | --- | --- |
| – | – | Prosurfactant protein C (proSP-C) BRICHOS domain, wild type (Homo sapiens) | about 6.1 |
| 2 | 2 | rh wildtype Bri2 BRICHOS (from UniProt Q9Y287 113-231) (domain or fragment) | – |

Reference: publication doi:10.1101/2021.12.01.470723
